Residue numbers refer to the chain shown, from its start. In names and notes the source's numbering stands. Several values for one entry are separate records, joined by “and”; a condition that tells them apart may be missing. Equal values may be shown once.

Test [1] has as its system MDA-MB-231 breast cancer cells. In words: Direct cell binding assay, flow cytometry, MDA-MB-231. It is filed as cell-based, human. The conditions noted are these: for direct cell binding: 1 μM, 2.5 μM and 7.5 μM labeled protein; for relative cell binding ability: MDA-MB-231. As to the method:
M-CSFM and two variants of M-CSFRGD (4.22 and 5.6) were labeled with a molar ratio of 1:1 of DyLight™ 488 NHS Ester (Thermo Fisher Scientific, USA) and the purified protein. The solution was incubated for 1 h at room temperature and the residual unbound dye was washed three times with Vivaspin (GE Healthcare life sciences, UK) with a 3,000 Da cutoff. […] MDA-MB-231 breast cancer cells were used for direct cell binding of the purified proteins. Cells were plated at a density of 10^5 per well in 96-well plates and were washed with […] of PBSA 0.1%. The cells were centrifuged at 150 g for 5 min, and the supernatant was removed; this step was repeated twice. Then, the labeled M-CSFRGD protein variants and the M-CSFM monospecific control were added in IBB+1% BSA to the cells at different concentrations (1, 2.5 and 7.5 μM) in a total volume of 100 μl and incubated at 4° C. with gentle agitation for 2 h. For c-FMS expression, the cells were stained with PE-anti human CD115 (BioLegend, USA) at a dilution of 1:50 and for αvβ3 integrin expression with FITC-anti human β3 integrin (BioLegend, USA) at a dilution of 1:25 for 30 min. Then, the cells were washed twice as described above and analyzed with Accuri C6 flow cytometry analyzer (BD Biosciences, USA). The mean fluorescence of the cells was subtracted from the other samples. The experiment was repeated three times at each concentration.
Assays for direct cell binding were conducted on breast cancer cell line MDA-MB-231 and murine primary cells with flow cytometer. MDA-MB-231 was used because the cells express αvβ3 integrin and c-FMS on the cell membrane, a protein expression pattern that imitates the osteoclast state just before reaching full differentiation and maturation. […] Murine primary cells that were obtained from bone marrow were tested for binding without any induction of differentiation (t=0). Such cells express high levels of c-FMS and low levels of αvβ3 integrin (FIGS. 11A and 11B), a state that imitates an early osteoclast differentiation stage.

Test [2] concerns human peripheral blood CD14+ monocytes differentiating to osteoclasts. Nature of the test: Osteoclast differentiation assay of human CD14+ monocytes (TRAP staining). It is filed as cell-based. The conditions noted are these: Example 14, CD14+ cells; for osteoclast formation: 50, 250, 1000 nM with M-CSFWT and RANKL. From the text: Differentiation assay—BMMs and CD14+ cells were obtained and grown as described above. The plates containing the monocytes were washed with PBS; the cells were detached using a cell scraper for BMMs or Accutase (Biological industries, Israel) for CD14^+; and 2×10^4 BMMs or 1×10^4 CD14^+ cells were transferred to each well in a 96-well plate. Osteoclast differentiation was induced as described in the ‘phosphorylation assay’ section. To determine the influence of M-CSFC31S and the M-CSFC31S,M27R on osteoclast differentiation, the proteins were added to the differentiation medium (with M-CSF and RANKL) in different concentrations (50 nM, 1 μM and 5 μM for BMMs and 50 nM, 250 nM and 1 μM for CD14^+). To determine the influence of human M-CSFWT on the differentiation, it was added to the cells in different concentrations (50 nM 1 μM and 5 μM) without adding murine M-CSFWT. Once the cells were fully differentiated, they were fixed with 4% paraformaldehyde and stained using the tartrate-resistant acid phosphatase (TRAP) staining kit (Sigma-Aldrich, USA) according to the manufacturer's protocol. As the positive control, cells were incubated with M-CSF and RANKL without inhibitors, and the negative control was comprised of cells that were incubated in differentiation medium without RANKL. […] Cells in each image were counted in a double-blind manner, and the number of nuclei in the osteoclasts was determined using ImageJ software. For the positive control of BMMs, an average of 28.33 osteoclasts and 135 nuclei per well were counted. For CD14^+ positive control, the average numbers of osteoclasts and nuclei were 14.5 and 75, respectively, per well. The results for each parameter were normalized to the positive control values.
In light of the above-described decrease in phosphorylation, it was hypothesized that incubation of M-CSFC31S,M27R with differentiating monocytes would result in decreased formation of osteoclasts. To test this premise, either BMMs or CD14^+ cells were incubated with murine or human M-CSFWT (20 ng/ml), respectively, and murine RANKL (20 ng/ml) together with M-CSFC31S and M-CSFC31S,M27R at concentrations of 50 and 1000 and 5000 nM for BMMs and 50, 250, 1000 nM for CD 14^+ cells. The cells were allowed to differentiate for 96 h or until they reached full differentiation. In BMMs incubated with M-CSFC31S, osteoclasts formed rapidly, and therefore they differentiated only for 72 h. Then, the cells were stained with a tartrate-resistant acid phosphatase (TRAP) staining kit (FIGS. 19A, B). […] This inhibition of differentiation behavior was observed also for M-CSFWT.

Test [3] concerns CTX-I (carboxy-terminal collagen crosslinks). Nature of the test: CTX-I serum ELISA in ovariectomized mice (bone resorption). It is filed as in vivo, C57 Rcc mice. Further details: CTX-I serum-concentration: unit not given here. The conditions noted are these: for CTX-I serum-concentration: 4 days, individual animals, listed as M-CSF 5.6. On the procedure: In order to assess the effect of M-CSF variant on bone resorption, 10 weeks old C57 Rcc mice were ovariectomized resulting in a decrease in estrogen secretion similar to what occurs in osteoporosis. Two weeks post-surgery the mice were treated with M-CSF5.6 variant in three concentrations-0.1 mg/kg, 0.5 mg/kg and 15 mg/kg, in order to test the effect on bone resorption and to find the optimal dosage. For a period of 4 days, 0.1 and 0.5 mg/kg M-CSF5.6 treated mice received subcutaneous injections twice a day, while 15 mg/kg M-CSF5.6 treated mice received a daily subcutaneous injection. Mice were sacrificed 18-24 hours after the final injection. The amounts of type I collagen fragments in the blood were measured using CTX-I (carboxy-terminal collagen crosslinks) ELISA.
Animals were randomly divided into 2 control groups (SHAM, PBS) and 4 treatment groups (0.1, 0.5 and 15 mg/kg M-CSF5.6 and 0.1 mg/kg Alendronate as positive control). Except for the SHAM group, all animals were ovariectomized. *, ^, + represent a Haemolytic-serum sample, an unsuccessful ovariectomy procedure (as determined post mortem) and an outlier, respectively. CTX-I serum-concentration values of mice with unsuccessful ovariectomy were excluded from the analysis.

B1: M-CSFM: 158 amino acid M-CSF with cysteine at position 31 replaced by serine (SEQ ID NO: 2) (protein)
chain: EEVSEYCSHMIGSGHLQSLQRLIDSQMETSSQITFEFVDQEQLKDPVCYLKKAFLLVQDIMEDTMRFRDNTPNAIAIVQLQELSLRLKSCFTKDYEEHDKACVRTFYETPLQLLEKVKNVFNETKNLLDKDWNIFSKNCNNSFAECSSQGHERQSEGS
B1: in test [1], the direct cell binding result was “showed binding” and the “relative cell binding ability” value was “weakest binder”. Moreover, in test [2], the “number of osteoclasts and number of nuclei” value is listed as “the opposite result”; the osteoclast formation entry is “highly accelerated in the two lower concentrations”.

B2: M-CSFC31S,M27R: M-CSF double mutant containing both C31S and M27R; monomeric, monospecific c-FMS antagonist (protein)
chain: B1 chain with M27R
B2: in test [2], the “number of osteoclasts and number of nuclei” value was “a decrease in both parameters, in a dose-dependent manner”; the osteoclast formation result is “significantly inhibited, in a dose-dependent manner”.

B3: 5.6: bispecific M-CSFRGD variant from sort five; M-CSFM loop replaced by XXXRGDXXX motif; binds c-FMS and αvβ3 integrin (protein)
chain: EEVSEYCSHMIGSGHLQSLQRLIDTYPRGDMCSITFEFVDQEQLKDPVCYLKKAFLLVQDIMEDTMRFRDNTPNAIAIVQLQELSLRLKSCFTKDYEEHDKACVRTFYETPLQLLEKVKNVFNETKNLLDKDWNIFSKNCNNSFAECSSQGHERQSEGS
modifications: left off: small tags and cut ends
For the molecule B3, the CTX-I serum-concentration was 58.19 and 44.06 and 130.4* and 195.2* and 53.32 and 46.69 in test [3] (0.1 mg/kg s.c. twice a day, * haemolytic); 53.33 and 209.7+ and 47.65*^ and 64.67 and 70.37* and 83.09* in test [3] (0.5 mg/kg s.c. twice a day, * haemolytic, ^ unsuccessful ovariectomy, + outlier); 33.94 and 33.49 and 214.7^+ and 46.82 and 30.85 and 40.68 in test [3] (15 mg/kg s.c. daily, ^ unsuccessful ovariectomy, + outlier). In addition, the “decrease in CTX-I levels compared to the PBS treated animals” value in test [3] (15 mg/kg) is approximately 2 fold. Besides, the “effect on CTX-I levels at lower doses” value in test [3] (0.1 and 0.5 mg/kg, hemolytic samples included) is “ineffective”. Also, the direct cell binding entry in test [1] was “showed binding”. Moreover, the “relative cell binding ability” value in test [1] is “best binding ability”.

The record behind these values is US11976099B2, “Compositions and methods for treatment of bone associated diseases” (THE NATIONAL INSTITUTE FOR BIOTECHNOLOGY IN THE NEGEV LTD., priority 2016, dated 2024).
